Source: the supplement of paper PMC10567573
± gives the standard deviation.

Assay: protein stability index of a GFP-peptide fusion (GPS, HEK-293T) (PSI 1-6); higher = more stable
[1] = treatment: DMSO, c terminus: a fixed tail appended
[2] = treatment: MLN4924 1 uM, 8 h, c terminus: a fixed tail appended
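Note: 24-mer peptide tiles fused after GFP, lentivirally expressed, FACS-sorted into six equal bins by GFP/DsRed ratio, decoded by Illumina sequencing, PSI is the read-weighted mean bin number.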

| Sequence | protein stability index [1] | protein stability index [2] | protein stability index (treatment: DMSO, c terminus: native) | protein stability index (treatment: MLN4924 1 uM, 8 h, c terminus: native) |
| --- | --- | --- | --- | --- |
| GSLGFEPVYVSCIAQDTCTTTDHS [SPAG8] | 3.37 ± 0.35 | 3.64 ± 0.17 |  |  |
| YPAMTFYSPAVMNYSIPSNVTNLE [ESR2] | 2.63 ± 0.61 | 2.93 ± 0.25 |  |  |
| KQAKVVARRESGGRPIKPPKKDLE [BRD3] | 5.08 ± 0.27 | 5.05 ± 0.24 |  |  |
| KIFNDFKDRMKSDHKRETERVVRE [ZMYND11] | 4.12 ± 0.35 | 4.13 ± 0.081 |  |  |
| ALRKTGQYSGMLDCARRILAREGV [SLC25A25] | 2.29 ± 0.18 | 2.27 ± 0.15 |  |  |
| GLDSPPLYPSAPILGGSGPVRKLY [ESRRG] | 3.37 ± 0.13 | 3.49 ± 0.24 |  |  |
| KHMFERSFTQGEGARPLSTRVPRA [MATN2] | 4.07 ± 0.18 | 3.85 ± 0.35 |  |  |
| KYDVKKVEEVVYDLSIRGFNKETA [TSN] | 3.57 ± 0.31 | 3.64 ± 0.23 |  |  |
| PKEATVMCEQCDVFYCDPCRLRCH [TRIM9] | 3.65 ± 0.28 | 3.82 ± 0.42 |  |  |
| VGELNGYLRDSSPAPCADGPAGGL [PWWP2B] | 4.29 ± 0.23 | 4.16 ± 0.068 |  |  |
| PGEWLELLLEPGSLYILRGSARYD [ALKBH7] | 3.2 ± 0.38 | 3.08 ± 0.51 |  |  |
| LESLPTDPLLLILSFLDYRDLINC [FBXO3] | 2.84 ± 0.61 | 2.85 ± 0.64 |  |  |
| MPSGSEEKILRELSEEEEDEEEEE [KCNA4] | 5.53 ± 0.59 | 5.69 ± 0.14 |  |  |
| VTPRTALLTWTEPPVRPAGYLLSF [TNXB] | 2.42 ± 0.29 | 2.2 ± 0.26 |  |  |
| ALPDSVLRRFVVRTMCAVLGLVAR [AUP1] | 2.51 ± 0.21 | 2.32 ± 0.44 |  |  |
| GTARYMSINTHLGKEQSRRDDLEA [CSNK1G3] | 4.75 ± 0.42 | 4.63 ± 0.16 |  |  |
| SSGQCRRRKRTYWNDSCGEDMEAS [WEE1] | 4.18 ± 0.43 | 4.52 ± 0.43 |  |  |
| DWLRRPLGEDNQPETQLFWDKEPW [TLE6] | 3.35 ± 0.34 | 3.22 ± 0.43 |  |  |
| MKSEEQKIKDARKGPLVPFPNQKS [KMT5A] | 5.01 ± 0.18 | 5.23 ± 0.19 |  |  |
| DPFVCRLRHLSPTPSEEHMKNKNN [OR4A15] | 4.73 ± 0.11 | 4.66 ± 0.1 |  |  |
| KNLKIWNVHTGEFRNCGACVTLMQ [WDR88] | 2.42 ± 0.86 | 2.35 ± 0.54 |  |  |
| NKNSTDVKGCSMYVALFPCNECAK [DCTD] | 2.19 ± 0.37 | 2.13 ± 0.14 |  |  |
| DVQSMPKTGILILILSIIFIEGYC [MAGEA10] | 2.86 ± 0.97 | 2.88 ± 1.2 |  |  |

| Sequence | protein stability index [1] | protein stability index [2] | protein stability index (treatment: DMSO, c terminus: native) | protein stability index (treatment: MLN4924 1 uM, 8 h, c terminus: native) |
| --- | --- | --- | --- | --- |
| QPKKLHLCPLCGKNFSNNSNLIRH [ZNF263] | 3.02 ± 0.39 | 3.37 ± 0.64 |  |  |
| ELQIELLRETKRKYESVLQLGRAL [ARFIP2] | 2.54 ± 0.12 | 2.55 ± 0.23 |  |  |
| REYLSEEVQAVHKNTTYDLIANIV [USP39] | 2.23 ± 0.23 | 2.32 ± 0.11 |  |  |
| KTQICHTLAVTCQLPIDRGGGEGK [RAD51] | 3.81 ± 0.17 | 3.95 ± 0.42 |  |  |
| QFEPQLTLWDVFGANKEVQELLER [RSAD1] | 3.24 ± 0.26 | 3.8 ± 0.47 |  |  |
| ESDSRKVAEETPDGAPALCPSPEA [PRKX] | 5.69 ± 0.17 | 5.58 ± 0.3 |  |  |
| LGHREPSAHPVEVFSFDLHEPLSK [TMEM175] | 3.92 ± 0.16 | 4.17 ± 0.28 |  |  |
| HPFLYLSLEISPQNVDVNVHPTKH [MLH1] |  | 2.37 ± 0.34 |  |  |
| GLAGYLSGYDGTFLFQKPGDKYEH [POMT2] | 2.62 ± 0.7 | 2.91 ± 0.6 |  |  |
| RWCCCCGERETRTPEELTILGETQ [CLCN6] | 3.76 ± 0.27 | 3.79 ± 0.18 |  |  |
| GIRQITSDDFCTFQMVLEGGVCCT [GFOD1] | 2.18 ± 0.21 | 2.22 ± 0.4 |  |  |
| LRYSVVEESEPGTLVGNVAQDLGL [PCDHGC5] | 3.94 ± 0.13 | 3.86 ± 0.26 |  |  |
| LIVTSLLLLPGLNQHGIILKYIGM [ARL6IP1] |  | 3.15 ± 0.81 |  |  |
| PYTPPATSHRRVTDVRGLEEFLSA [PLEKHN1] | 3.98 ± 0.19 | 3.91 ± 0.35 |  |  |
| EEDNDDAKILPSPVQGSSEDNLSL [DRICH1] | 5.57 ± 0.25 | 5.55 ± 0.17 |  |  |
| FENPADAKNAAKDMNGKSLHGKAI [RBMY1A1] | 4.92 ± 0.14 | 5 ± 0.23 |  |  |
| SLKLKSSHHSKHKAPSKLGLIISG [DLC1] | 2.66 ± 0.072 | 2.77 ± 0.55 |  |  |
| DVVEDYKKRYEEEINKRTAAENEF [KRT71] | 5.13 ± 0.093 | 5.37 ± 0.3 |  |  |
| PGGITSHQLLGLFPSTSYNARLQA [TNXB] | 2.98 ± 0.084 | 3.02 ± 0.085 |  |  |
| QCPYCQRRFNENAADRHINFCKEQ [ZC2HC1A] | 4.91 ± 0.38 | 5.09 ± 0.2 |  |  |
| NDFVQVDPGQVGLINSNVSMVDLT [FAN1] | 3.9 ± 0.39 | 4.24 ± 0.15 |  |  |
| EKASWLGEQPQFWSKTQVLDWISY [ELF3] | 2.33 ± 0.3 | 2.16 ± 0.096 |  |  |
| SLRLWDTFGDHHKDRRFAYGRSDV [RHOBTB1] | 2.87 ± 0.38 | 2.92 ± 0.24 |  |  |

| Sequence | protein stability index [1] | protein stability index [2] | protein stability index (treatment: DMSO, c terminus: native) | protein stability index (treatment: MLN4924 1 uM, 8 h, c terminus: native) |
| --- | --- | --- | --- | --- |
| WLSTAPTEPLTHWYQVRCLFQSPL [CARM1] | 2.44 ± 1 | 2.19 ± 0.4 |  |  |
| LYIFATCLGLSYDGLLGDNQIMPK [MAGEA3] | 2.92 ± 0.34 | 2.78 ± 0.52 |  |  |
| LTWSELFVLNAAQCSMPLHVAPLL [NR2F2] | 2.98 ± 0.21 | 3.16 ± 0.32 |  |  |
| ADNKIVSHLLVAEPEKIYAMPDPT [ESRRG] | 4.23 ± 0.17 | 4.22 ± 0.27 |  |  |
| PSEKKVAIIRTPPKSPATPKQLRL [MAP2] | 4.2 ± 0.15 | 4.28 ± 0.15 |  |  |
| ERFSSAPCLLGSRVFSQGSHAWEV [TRIM35] | 2.51 ± 0.36 | 2.46 ± 0.2 |  |  |
| LAAKALLDQKKQDPRVQDFLQRCL [NET1] | 2.28 ± 0.31 | 2.42 ± 0.25 |  |  |
| KGYTPLHAAASNGQINVVKHLLNL [ANKRD44] | 2.67 ± 0.21 | 2.69 ± 0.25 |  |  |
| LYFATLRNRPKSTVNTHYFSIDEE [CDC14A] | 2.11 ± 0.17 | 2.15 ± 0.32 |  |  |
| WEISWPLEQRGTHAVVGVATALAP [SPSB2] | 2.44 ± 0.26 | 2.73 ± 0.36 |  |  |
| ALPKATILDLSCNKLTTLPSDFCG [LRRC59] | 2.82 ± 0.16 | 3.02 ± 0.28 |  |  |
| AANEQLTRAILRERICSEEERAKA [CHCHD3] | 4.82 ± 0.23 | 4.97 ± 0.19 |  |  |
| IRGRYLVALGHAYHPEEFVCSQCG [PDLIM7] | 2.51 ± 0.18 | 2.77 ± 0.3 |  |  |
| ELIKWRAAIVVNGHGMTPLKVAAE [FEM1B] | 2.64 ± 0.55 | 2.15 ± 0.33 |  |  |
| QCNICGKCFSCNSNLHRHQRTHTG [ZNF263] | 4.44 ± 0.13 | 4.63 ± 0.29 |  |  |
| PKNDNVVIPECAHGGLYKPVQCHP [SMOC2] | 3.44 ± 0.15 | 3.6 ± 0.36 |  |  |
| SKFRRKDREDSPERCSDSDEEKKA [CLINT1] | 5.43 ± 0.27 | 5.47 ± 0.14 |  |  |
| SSGEDDDFKSCPQGPQGREGLAFL [PWWP2B] | 4.75 ± 0.23 | 4.85 ± 0.18 |  |  |
| SQGEVEKLIKCDEIQVDSEEPVFE [KLHL12] | 5.23 ± 0.4 | 5.47 ± 0.25 |  |  |
| EELEEALEVERQENEQRRLFIQKE [MNAT1] | 5.05 ± 0.24 | 5 ± 0.16 |  |  |
| VRQINRKTPVPGKARKKSSCQLL [RAP1B] |  |  | 4.5 ± 0.27 | 4.44 ± 0.18 |
| NARRRLKKENKMTWAPKNKGGEER [IRX6] | 4.51 ± 0.27 | 4.63 ± 0.098 |  |  |
| ETYIHLLAMKIKVGSDDLERIEAR [PSD2] | 2.26 ± 0.13 | 2.5 ± 0.44 |  |  |

| Sequence | protein stability index [1] | protein stability index [2] | protein stability index (treatment: DMSO, c terminus: native) | protein stability index (treatment: MLN4924 1 uM, 8 h, c terminus: native) |
| --- | --- | --- | --- | --- |
| QQAEKILKSMDKNGTMTIDWNEWR [SLC25A25] | 3.36 ± 0.47 | 3.56 ± 0.39 |  |  |
| AGEAHMAADGETNGSCENSDASSH [EHMT1] | 5.55 ± 0.36 | 5.69 ± 0.15 |  |  |
| RKKSGDLKKAKVQVERMREVNSRC [FBXO34] | 4.15 ± 0.17 | 4.38 ± 0.42 |  |  |
| MCLFLQSLRQKQPERLCSGPGIVG [GMPPB] | 2.27 ± 0.41 | 2.17 ± 0.46 |  |  |
| SNHVDDFTTFRGTELSFLVTTHQP [EDNRA] | 2.61 ± 0.4 | 2.8 ± 0.4 |  |  |
| MVIHIPEEPRPSRPRYKADVPDLQ [KCNK9] | 3.02 ± 0.21 | 3.24 ± 0.18 |  |  |
| PPAMPPPATHLSPALAPVPRNSCI [TRIM9] | 4.39 ± 0.13 | 4.38 ± 0.17 |  |  |
| LSPEVLNKQGHGCESDIWALGCVM [PLK2] | 2.09 ± 0.15 | 2.14 ± 0.29 |  |  |
| FLQRCLESPFSRKLDLWSFLDIPR [NET1] | 2.45 ± 0.47 | 2.1 ± 0.18 |  |  |
| LKDFTLNETVNSIFAQGAPRSSLA [ADAMTSL2] | 3.01 ± 0.17 | 3.26 ± 0.32 |  |  |
| YIPVIKRALNSVPVIIAAVGTRQN [RHOBTB3] | 2.35 ± 0.52 | 2.24 ± 0.35 |  |  |
| TREGFGHSTSLKVPLARSLQISEE [LCOR] | 3.39 ± 0.44 | 3.82 ± 0.22 |  |  |
| SYKNLTLKFHKLVNVTIHFRLKTI [MCOLN1] | 3.21 ± 0.5 | 3.03 ± 0.41 |  |  |
| VGSGGRRDSTARRPRPQGRSVSEP [RTN2] | 5.09 ± 0.04 | 5.19 ± 0.15 |  |  |
| GYRTSAVASGLQFDVETRHVFIGD [WDFY2] | 2.86 ± 0.31 | 3.15 ± 0.36 |  |  |
| PPPCKFGEGKLSKRLKHKDDSVMK [C22orf31] | 4.51 ± 0.15 | 4.61 ± 0.06 |  |  |
| VHGDPAVWWVSQFVKYLIRPQPWL [FUT8] | 2.95 ± 0.34 | 3.21 ± 0.6 |  |  |
| YSYRRLGEEALSLQALDPQQCVDK [SLC22A15] | 4.05 ± 0.45 | 4.05 ± 0.31 |  |  |
| IRALLNLHTDVGSVRMRRAEKSVA [NEK8] | 2.42 ± 0.21 | 2.53 ± 0.19 |  |  |
| SLESEEEEYPGITAEDSNDIYILP [BCL2L13] | 5.06 ± 0.22 | 5.05 ± 0.23 |  |  |
